Reference: the supplement of paper PMC10065799, “High-throughput profiling of sequence recognition by tyrosine kinases and SH2 domains using bacterial peptide display” (eLife, 2023)

Tests used:
[1] = system: AncSZ; assay: phosphorylation enrichment, bacterial display (enrichment ratio); higher = better substrate or ligand; peptides without Tyr show the background
[2] = biological target: EPHB1 (UniProt P54762); assay: as above
[3] = biological target: EPHB2 (UniProt P29323); assay: as above
[4] = biological target: FGFR1 (UniProt P11362); assay: as above
Chain of FGFR1 (P11362 whole entry, looked up): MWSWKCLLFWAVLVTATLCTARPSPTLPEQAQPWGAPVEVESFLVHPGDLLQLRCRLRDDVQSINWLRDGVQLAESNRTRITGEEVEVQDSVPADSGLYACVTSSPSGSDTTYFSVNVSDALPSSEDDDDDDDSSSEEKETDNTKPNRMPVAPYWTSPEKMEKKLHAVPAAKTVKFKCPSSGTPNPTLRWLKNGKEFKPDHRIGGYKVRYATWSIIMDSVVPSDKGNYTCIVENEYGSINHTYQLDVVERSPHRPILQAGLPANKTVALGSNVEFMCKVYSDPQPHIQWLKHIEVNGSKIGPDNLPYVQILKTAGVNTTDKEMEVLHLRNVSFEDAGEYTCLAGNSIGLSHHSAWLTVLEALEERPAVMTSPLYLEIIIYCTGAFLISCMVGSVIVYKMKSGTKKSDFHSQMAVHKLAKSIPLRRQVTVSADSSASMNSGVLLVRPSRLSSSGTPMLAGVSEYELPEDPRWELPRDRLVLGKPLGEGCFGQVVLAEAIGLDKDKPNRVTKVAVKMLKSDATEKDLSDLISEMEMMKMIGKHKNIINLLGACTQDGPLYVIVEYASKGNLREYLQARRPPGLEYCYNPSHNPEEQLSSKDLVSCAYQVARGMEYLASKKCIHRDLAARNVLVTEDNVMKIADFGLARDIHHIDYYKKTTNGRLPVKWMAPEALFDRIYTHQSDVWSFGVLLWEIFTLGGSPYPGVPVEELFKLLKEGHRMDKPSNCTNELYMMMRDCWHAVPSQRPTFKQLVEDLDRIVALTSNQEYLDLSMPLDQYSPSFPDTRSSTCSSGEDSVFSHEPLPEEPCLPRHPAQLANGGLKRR

[5] = biological target: FGFR3 (UniProt P22607); assay: as above
Chain of FGFR3 (P22607 whole entry, looked up): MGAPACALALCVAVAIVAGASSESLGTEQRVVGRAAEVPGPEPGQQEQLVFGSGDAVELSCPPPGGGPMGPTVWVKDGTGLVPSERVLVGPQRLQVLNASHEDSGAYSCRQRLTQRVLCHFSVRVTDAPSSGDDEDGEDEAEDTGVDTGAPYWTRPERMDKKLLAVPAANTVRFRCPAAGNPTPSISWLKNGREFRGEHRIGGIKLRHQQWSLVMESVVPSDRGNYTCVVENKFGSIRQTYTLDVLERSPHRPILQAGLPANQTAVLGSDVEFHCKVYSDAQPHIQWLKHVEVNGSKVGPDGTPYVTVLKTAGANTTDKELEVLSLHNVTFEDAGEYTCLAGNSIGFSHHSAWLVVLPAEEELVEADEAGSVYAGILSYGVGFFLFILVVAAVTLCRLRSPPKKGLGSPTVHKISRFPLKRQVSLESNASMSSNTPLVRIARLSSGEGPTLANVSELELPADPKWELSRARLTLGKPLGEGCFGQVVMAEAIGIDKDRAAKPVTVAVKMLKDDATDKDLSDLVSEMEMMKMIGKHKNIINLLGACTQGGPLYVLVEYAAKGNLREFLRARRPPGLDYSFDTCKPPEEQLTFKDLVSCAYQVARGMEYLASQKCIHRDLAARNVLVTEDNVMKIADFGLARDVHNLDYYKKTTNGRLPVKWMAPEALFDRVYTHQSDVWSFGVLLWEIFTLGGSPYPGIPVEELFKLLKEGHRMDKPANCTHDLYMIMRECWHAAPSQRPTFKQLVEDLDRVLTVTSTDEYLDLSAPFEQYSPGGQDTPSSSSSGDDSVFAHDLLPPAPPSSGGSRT

[6] = system: Fer (mouse); assay: as above
[7] = biological target: Fes (UniProt P07332); assay: as above
[8] = biological target: Fyn (UniProt P06241); assay: as above
Chain of Fyn (P06241 whole entry, looked up): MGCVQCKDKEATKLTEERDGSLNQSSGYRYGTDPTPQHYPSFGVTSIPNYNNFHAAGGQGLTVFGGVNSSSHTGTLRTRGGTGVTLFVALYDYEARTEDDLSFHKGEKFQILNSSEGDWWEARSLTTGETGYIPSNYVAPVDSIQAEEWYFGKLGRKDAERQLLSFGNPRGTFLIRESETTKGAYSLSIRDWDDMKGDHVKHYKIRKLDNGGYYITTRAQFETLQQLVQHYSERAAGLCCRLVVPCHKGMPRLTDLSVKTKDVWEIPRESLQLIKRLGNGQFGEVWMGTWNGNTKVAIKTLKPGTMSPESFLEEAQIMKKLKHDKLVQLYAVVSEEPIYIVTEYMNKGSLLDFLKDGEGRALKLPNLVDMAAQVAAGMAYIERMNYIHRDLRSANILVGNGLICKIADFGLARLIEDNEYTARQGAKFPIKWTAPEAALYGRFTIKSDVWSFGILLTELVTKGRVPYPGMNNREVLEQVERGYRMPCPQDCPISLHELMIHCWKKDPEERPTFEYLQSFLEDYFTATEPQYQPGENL

[9] = biological target: Hck (UniProt P08631); assay: as above
Chain of Hck (P08631 whole entry, looked up): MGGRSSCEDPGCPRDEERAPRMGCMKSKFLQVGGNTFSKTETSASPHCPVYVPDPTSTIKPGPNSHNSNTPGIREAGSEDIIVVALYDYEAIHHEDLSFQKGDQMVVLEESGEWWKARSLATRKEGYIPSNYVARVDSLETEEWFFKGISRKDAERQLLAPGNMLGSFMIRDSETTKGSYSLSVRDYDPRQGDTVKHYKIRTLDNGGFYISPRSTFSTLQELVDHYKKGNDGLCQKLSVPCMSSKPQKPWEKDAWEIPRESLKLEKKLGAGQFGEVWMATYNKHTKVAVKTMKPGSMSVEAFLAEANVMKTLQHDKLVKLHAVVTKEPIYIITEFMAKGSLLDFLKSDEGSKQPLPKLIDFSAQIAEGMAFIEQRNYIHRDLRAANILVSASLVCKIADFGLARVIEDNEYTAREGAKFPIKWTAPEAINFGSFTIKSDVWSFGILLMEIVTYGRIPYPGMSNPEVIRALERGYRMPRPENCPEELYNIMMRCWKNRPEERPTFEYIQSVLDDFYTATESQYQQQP

[10] = biological target: Jak2 (UniProt O60674); assay: as above
[11] = biological target: MERTK (UniProt Q12866); assay: as above
[12] = system: c-Abl (mouse); assay: as above
[13] = system: c-Src; assay: as above
[14] = biological target: Grb2 SH2 (UniProt P62993); assay: SH2 binding enrichment of the phosphorylated peptide, bacterial display (enrichment ratio); higher = better substrate or ligand; peptides without Tyr show the background
Chain of Grb2 SH2 (P62993 whole entry, looked up): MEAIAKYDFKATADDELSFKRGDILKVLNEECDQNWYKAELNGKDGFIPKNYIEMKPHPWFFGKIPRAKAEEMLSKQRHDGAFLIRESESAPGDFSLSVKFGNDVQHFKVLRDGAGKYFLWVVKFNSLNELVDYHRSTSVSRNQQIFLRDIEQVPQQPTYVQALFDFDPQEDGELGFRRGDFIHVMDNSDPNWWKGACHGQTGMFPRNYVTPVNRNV

[15] = biological target: SHP2-C SH2; assay: as above
[16] = biological target: c-Src SH2; assay: as above
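Throughout, for SH2 binding enrichment of the phosphorylated peptide, bacterial display: peptide library displayed on the E. coli surface as eCPX fusions, selected cells deep-sequenced, score is each peptide's frequency after selection divided by its frequency in the input.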
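Throughout, for phosphorylation enrichment, bacterial display: 11-residue human phosphosite peptides and single-mutation variants displayed on the E. coli surface, counted by deep sequencing, each peptide's frequency after selection divided by its frequency in the unselected input library; frequency after pTyr selection over input frequency; kinase dosed for 20-30% of maximal phosphorylation in three min.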

Chain of EPHB2 (P29323 whole entry, looked up): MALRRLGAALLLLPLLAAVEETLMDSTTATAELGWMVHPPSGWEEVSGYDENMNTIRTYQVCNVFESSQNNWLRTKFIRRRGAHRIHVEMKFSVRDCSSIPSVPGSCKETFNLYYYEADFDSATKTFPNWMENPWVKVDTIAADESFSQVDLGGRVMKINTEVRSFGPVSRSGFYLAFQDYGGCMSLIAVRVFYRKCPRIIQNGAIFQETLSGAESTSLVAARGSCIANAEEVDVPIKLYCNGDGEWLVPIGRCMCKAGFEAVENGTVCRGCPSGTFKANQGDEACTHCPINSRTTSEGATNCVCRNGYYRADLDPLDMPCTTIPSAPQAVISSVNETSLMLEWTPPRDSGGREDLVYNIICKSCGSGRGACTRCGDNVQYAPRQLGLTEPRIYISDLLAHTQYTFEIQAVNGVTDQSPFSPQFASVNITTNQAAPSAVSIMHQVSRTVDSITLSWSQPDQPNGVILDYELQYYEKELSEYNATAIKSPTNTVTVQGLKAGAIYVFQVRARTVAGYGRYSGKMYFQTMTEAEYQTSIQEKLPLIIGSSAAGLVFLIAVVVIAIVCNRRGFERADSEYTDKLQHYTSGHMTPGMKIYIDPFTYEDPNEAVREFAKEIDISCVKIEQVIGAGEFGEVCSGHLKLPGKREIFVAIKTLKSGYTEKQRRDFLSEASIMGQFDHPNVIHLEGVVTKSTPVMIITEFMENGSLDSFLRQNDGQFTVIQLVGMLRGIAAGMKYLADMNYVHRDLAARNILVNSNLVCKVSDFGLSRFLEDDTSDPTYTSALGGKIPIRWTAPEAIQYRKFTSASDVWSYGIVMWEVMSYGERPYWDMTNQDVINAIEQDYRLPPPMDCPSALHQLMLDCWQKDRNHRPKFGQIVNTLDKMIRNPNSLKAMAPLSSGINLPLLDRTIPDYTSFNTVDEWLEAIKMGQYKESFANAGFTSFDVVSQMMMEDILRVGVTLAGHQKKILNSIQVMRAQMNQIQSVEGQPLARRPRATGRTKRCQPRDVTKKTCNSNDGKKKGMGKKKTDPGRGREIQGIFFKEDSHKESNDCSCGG
Chain of EPHB1 (P54762 whole entry, looked up): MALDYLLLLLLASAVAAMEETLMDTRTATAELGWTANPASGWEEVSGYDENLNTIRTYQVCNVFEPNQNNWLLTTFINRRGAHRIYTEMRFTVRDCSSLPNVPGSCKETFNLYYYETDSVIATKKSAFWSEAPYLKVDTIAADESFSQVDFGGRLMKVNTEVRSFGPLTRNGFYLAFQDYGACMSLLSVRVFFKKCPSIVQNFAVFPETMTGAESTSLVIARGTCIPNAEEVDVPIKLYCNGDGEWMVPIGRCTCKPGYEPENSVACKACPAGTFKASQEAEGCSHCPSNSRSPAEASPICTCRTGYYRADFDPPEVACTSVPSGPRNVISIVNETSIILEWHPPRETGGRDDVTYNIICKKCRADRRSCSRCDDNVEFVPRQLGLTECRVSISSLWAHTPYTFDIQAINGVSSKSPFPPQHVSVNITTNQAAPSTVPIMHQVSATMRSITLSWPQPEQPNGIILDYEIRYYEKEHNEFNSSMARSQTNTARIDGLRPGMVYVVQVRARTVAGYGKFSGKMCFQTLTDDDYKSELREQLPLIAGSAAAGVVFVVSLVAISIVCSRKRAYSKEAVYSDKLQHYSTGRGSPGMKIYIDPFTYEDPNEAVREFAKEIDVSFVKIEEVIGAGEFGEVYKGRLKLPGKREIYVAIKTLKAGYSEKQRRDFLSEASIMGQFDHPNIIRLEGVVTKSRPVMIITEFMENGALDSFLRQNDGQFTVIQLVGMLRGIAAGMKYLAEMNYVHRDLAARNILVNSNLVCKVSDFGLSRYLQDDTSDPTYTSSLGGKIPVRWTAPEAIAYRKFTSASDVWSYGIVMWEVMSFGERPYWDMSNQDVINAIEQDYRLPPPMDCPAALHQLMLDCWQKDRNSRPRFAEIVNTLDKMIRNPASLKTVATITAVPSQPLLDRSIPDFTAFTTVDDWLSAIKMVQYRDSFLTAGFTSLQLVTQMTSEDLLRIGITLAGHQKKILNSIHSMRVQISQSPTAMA

| Sequence | phosphorylation enrichment [1] | phosphorylation enrichment [2] | phosphorylation enrichment [3] | phosphorylation enrichment [4] | phosphorylation enrichment [5] | phosphorylation enrichment [6] | phosphorylation enrichment [7] | phosphorylation enrichment [8] | phosphorylation enrichment [9] | phosphorylation enrichment [10] | phosphorylation enrichment [11] | phosphorylation enrichment [12] | phosphorylation enrichment [13] | SH2 binding enrichment [14] | SH2 binding enrichment [15] | SH2 binding enrichment [16] |
| --- | --- | --- | --- | --- | --- | --- | --- | --- | --- | --- | --- | --- | --- | --- | --- | --- |
| WFKKFYDANCD [MAPRE2_Y158_Y162C] | 1 | 0.77 | 0.426 | 0.472 | 0.707 | 0.453 | 1.21 | 0.46 | 0.475 | 0.948 | 0.35 | 0.749 | 0.397 | 0.848 | 0.78 | 0.513 |
| WFPFTYVEEDE [VAV3_Y842_S840Y_YF] | 1.19 | 0.702 | 0.473 | 0.52 | 0.692 | 0.547 | 1.11 | 0.516 | 0.437 | 1.1 | 0.453 | 0.655 | 0.521 | 1.48 | 1.48 | 1.23 |
| WFPYTYVEEDE [VAV3_Y842_S840Y] | 1.47 | 1.16 | 0.773 | 1.56 | 1.72 | 0.899 | 1.3 | 0.843 | 0.616 | 1.08 | 0.625 | 0.746 | 1.3 | 0.879 | 1.91 | 3.92 |
| WGLCSYFETSK [MAGED2_Y448_R446C_YF] | 1.29 | 0.671 | 0.633 | 0.768 | 0.847 | 0.62 | 1.55 | 0.423 | 0.523 | 1.34 | 0.403 | 0.926 | 0.698 | 1.11 | 0.797 | 0.698 |
| WKGSWYSMKKM [FGB_Y475_R478K] | 0.736 | 0.645 | 0.506 | 0.488 | 0.553 | 0.353 | 0.918 | 0.488 | 0.437 | 0.859 | 0.362 | 0.533 | 0.373 | 1.3 | 1.37 | 1.19 |
| WQQQSYLDSRI [CTNNB1_Y30_G34R] | 0.675 | 0.444 | 0.473 | 0.484 | 0.496 | 0.455 | 0.793 | 0.465 | 0.476 | 0.623 | 0.515 | 0.482 | 0.4 | 0.894 | 0.645 | 0.571 |
| WYQTKYEELQI [KRT6B_Y360] | 1.11 | 0.454 | 0.639 | 0.503 | 0.727 | 0.614 | 1.23 | 0.474 | 0.649 | 1.15 | 0.437 | 0.741 | 0.552 | 0.798 | 1.2 | 5.9 |
| YCGYSYDDIPD [TMEM230_Y112_R108C] | 2.47 | 0.818 | 0.954 | 1.53 | 1.57 | 1.95 | 1.34 | 0.932 | 0.799 | 1.36 | 1.03 | 0.926 | 1.75 | 0.988 | 1.43 | 10.6 |
| YEAMEYLESKQ [BTK_Y511_C506Y] | 1.84 | 2.15 | 0.843 | 1.15 | 1.04 | 3.06 | 1.28 | 0.654 | 0.805 | 1.14 | 3.12 | 0.836 | 0.568 | 0.646 | 0.649 | 10 |
| YEEDPYLVVNP [MCM6_Y810] | 1.79 | 0.648 | 0.56 | 1.52 | 1.52 | 0.825 | 1.37 | 1.99 | 1.06 | 1.37 | 0.605 | 0.861 | 2.48 | 1.2 | 0.855 | 3.48 |
| YEHVGYTTLNR [CHN1_Y148] | 0.72 | 0.616 | 0.758 | 0.725 | 0.597 | 4.18 | 0.658 | 0.657 | 2.79 | 0.725 | 4.18 | 1.01 | 0.655 | 0.904 | 19.4 | 16.5 |
| YEPDAYYDLDQ [ELP5_Y302_D303Y] | 1.82 | 1.05 | 0.833 | 8.16 | 6.94 | 0.919 | 1.56 | 1.62 | 0.852 | 1.61 | 0.65 | 0.861 | 2.06 | 0.807 | 0.626 | 1.88 |
| YFRDGCMPRQY [GSS_Y270_Y270C] | 0.938 | 0.602 | 0.552 | 0.6 | 0.883 | 0.505 | 0.948 | 0.43 | 0.438 | 0.833 | 0.406 | 0.72 | 0.364 | 1.08 | 0.637 | 0.499 |
| YGLQAYTEVKT [ALDH2_Y502] | 1.27 | 0.721 | 0.67 | 0.59 | 0.842 | 0.704 | 1.29 | 0.546 | 0.488 | 1.06 | 0.55 | 0.834 | 0.439 | 0.984 | 2.38 | 6.95 |
| YHLGKYLQEVL [KLB_Y910_Y906H] | 1.18 | 0.481 | 0.724 | 0.527 | 0.739 | 0.452 | 1.1 | 0.524 | 0.498 | 0.87 | 0.383 | 0.685 | 0.298 | 0.878 | 0.565 | 0.435 |
| YHLLPYTIRAM [PARS2_Y93_V95I] | 1.14 | 1.17 | 0.873 | 16.6 | 13.8 | 0.464 | 0.83 | 3.83 | 9.37 | 7.24 | 10.9 | 25.4 | 5.16 | 0.994 | 1.14 | 6.08 |
| YIGVTYKNEED [PDGFRA_Y993] | 1 | 0.602 | 0.539 | 0.71 | 0.822 | 0.555 | 1.05 | 0.528 | 0.509 | 0.961 | 0.433 | 0.666 | 0.461 | 1.35 | 1.52 | 1.89 |
| YKTPTYPYLLP [PLD2_Y578] | 0.958 | 0.459 | 0.454 | 0.794 | 0.786 | 0.543 | 0.764 | 0.525 | 0.481 | 0.92 | 0.589 | 0.943 | 0.625 | 1.04 | 0.521 | 1.68 |
| YLAATYPTLGQ [NF1_Y2508_V2511L] | 0.779 | 0.331 | 0.663 | 0.824 | 0.642 | 0.677 | 0.773 | 0.433 | 0.633 | 0.754 | 0.742 | 0.774 | 0.637 | 0.872 | 0.859 | 0.764 |
| YLAATYPTVGQ [NF1_Y2508] | 0.677 | 0.357 | 0.472 | 0.582 | 0.51 | 0.357 | 0.753 | 0.455 | 0.454 | 1.08 | 0.73 | 0.518 | 0.407 | 0.796 | 0.97 | 0.515 |
| YLGRNYLETLM [DUS3L_Y610_D609N] | 0.859 | 0.578 | 0.467 | 0.85 | 0.744 | 0.487 | 0.926 | 0.435 | 0.551 | 0.705 | 0.467 | 0.765 | 0.411 | 1.01 | 1.1 | 0.41 |
| YPKARYHWLVL [APTX_Y214] | 0.95 | 0.507 | 0.552 | 0.582 | 0.67 | 0.539 | 1.08 | 0.429 | 0.493 | 0.941 | 0.482 | 0.707 | 0.383 | 1.54 | 1.46 | 1.2 |
| YPLAEYTEVKT [ALDH1A3_Y497_A493P] | 1.1 | 0.563 | 0.642 | 1.1 | 0.824 | 0.516 | 0.946 | 0.433 | 0.538 | 0.721 | 0.326 | 0.607 | 0.444 | 1.22 | 0.869 | 1.78 |
| YPRTGYSVPYG [TGM1_Y370_L366P] | 0.714 | 0.418 | 0.519 | 0.525 | 0.545 | 0.383 | 0.78 | 0.459 | 0.453 | 0.925 | 0.55 | 0.681 | 0.406 | 1.01 | 0.854 | 5.88 |
| YQQLFYLLQTN [IQGAP2_Y890] | 1.36 | 1.92 | 0.758 | 2.75 | 2.26 | 0.692 | 1.35 | 0.751 | 1.17 | 1.39 | 2.7 | 1.03 | 1.3 | 1.49 | 1.83 | 1.11 |
| YRDMDYRSYPR [RBM10_Y41] | 0.64 | 0.477 | 0.475 | 2.3 | 1.37 | 0.415 | 0.895 | 0.402 | 0.4 | 0.55 | 0.519 | 0.607 | 0.547 | 0.87 | 0.707 | 0.941 |
| YSGLAYTMERS [GLUD1_Y512_H507Y] | 0.765 | 0.386 | 0.355 | 0.463 | 0.558 | 0.398 | 0.833 | 1.09 | 1.64 | 0.873 | 0.849 | 0.607 | 1.43 | 0.682 | 1.48 | 1.59 |
| YSMGCYEISLE [HMGCL_Y198_G203E] | 2.01 | 1.01 | 0.907 | 0.582 | 1.09 | 1.82 | 1.35 | 1.65 | 1.23 | 1.08 | 1.51 | 0.806 | 2.02 | 0.766 | 0.564 | 0.504 |
| YVSLIYTNYEA [GSTP1_Y109_I105V] | 1.84 | 3.04 | 2.87 | 6.43 | 5.46 | 3.36 | 1.36 | 5.04 | 3.62 | 1.32 | 4.74 | 1.87 | 4.34 | 1.18 | 4.37 | 3.42 |
| YYYDLYGGEKF [PTPN11_Y66_D61Y] | 1.98 | 7.99 | 11.5 | 14.7 | 13.6 | 4.15 | 1.3 | 5.97 | 6.45 | 5.36 | 9.48 | 0.964 | 5.71 | 1.43 | 1.63 | 4.39 |
